# T1: Depupylase Dop from Corynebacterium glutamicum, wild type (Corynebacterium glutamicum)
# T1 chain: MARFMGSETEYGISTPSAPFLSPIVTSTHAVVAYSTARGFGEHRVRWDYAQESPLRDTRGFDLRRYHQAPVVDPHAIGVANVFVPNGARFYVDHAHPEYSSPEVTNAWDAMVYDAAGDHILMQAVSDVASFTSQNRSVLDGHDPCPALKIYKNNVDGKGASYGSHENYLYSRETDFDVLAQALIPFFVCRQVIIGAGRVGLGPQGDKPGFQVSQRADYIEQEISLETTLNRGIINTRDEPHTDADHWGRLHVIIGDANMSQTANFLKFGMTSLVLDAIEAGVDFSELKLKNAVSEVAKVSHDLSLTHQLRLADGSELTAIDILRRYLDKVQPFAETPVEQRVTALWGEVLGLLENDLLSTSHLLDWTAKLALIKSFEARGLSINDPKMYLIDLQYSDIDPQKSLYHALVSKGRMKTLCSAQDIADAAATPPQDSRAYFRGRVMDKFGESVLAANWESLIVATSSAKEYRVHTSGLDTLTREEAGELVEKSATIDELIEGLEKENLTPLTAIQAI
# Legend:
# [1] = molecular target: T1, Depupylase Dop from Corynebacterium …; experiment: ITC
# [2] = molecular target: CgluDopGS, Dop-loop variant of Dop from Corynebacterium glutamicum (Dop-loop H43-I77 replaced with (GS)4) (Corynebacterium glutamicum); experiment: ITC
binder,measurement,setting,value
Prokaryotic ubiquitin-like protein Pup from Corynebacterium glutamicum with C-terminal glutamate (natural protein) MNAKQTQIMGGGGRDEDNAEDSAQASGQVQINTEGVDSLLDEIDGLLENNAEEFVRSYVQKGGE,Kd,[1],0.186 µM
same,Kd,[2],0.076 µM

# Reference: article PMC8599861 (2021)
